Common to all, as to assay: cell-based or functional assay
The target in assay [1] is human glucagon receptor (human) (UniProt P47871).
In the next assay the target is hGLP-1R (Homo sapiens, UniProt P43220).
For assay [2], the target named is T1, human GIP receptor (human) (UniProt P48546).
T1 sequence (looked up): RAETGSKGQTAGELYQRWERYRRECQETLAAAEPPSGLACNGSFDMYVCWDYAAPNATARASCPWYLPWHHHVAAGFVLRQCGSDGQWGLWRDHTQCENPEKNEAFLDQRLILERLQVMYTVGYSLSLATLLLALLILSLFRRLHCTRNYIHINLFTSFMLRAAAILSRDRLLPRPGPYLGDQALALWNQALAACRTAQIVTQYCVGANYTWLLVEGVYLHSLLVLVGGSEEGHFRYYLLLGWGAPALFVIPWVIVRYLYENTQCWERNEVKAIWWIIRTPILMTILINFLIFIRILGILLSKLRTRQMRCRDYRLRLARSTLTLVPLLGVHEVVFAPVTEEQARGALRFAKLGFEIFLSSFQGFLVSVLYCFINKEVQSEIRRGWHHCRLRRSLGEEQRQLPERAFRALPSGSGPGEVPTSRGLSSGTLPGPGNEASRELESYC

Where a chain is given by its changes, count along the chain named.

Sequence of hGLP-1R (P43220 24-463): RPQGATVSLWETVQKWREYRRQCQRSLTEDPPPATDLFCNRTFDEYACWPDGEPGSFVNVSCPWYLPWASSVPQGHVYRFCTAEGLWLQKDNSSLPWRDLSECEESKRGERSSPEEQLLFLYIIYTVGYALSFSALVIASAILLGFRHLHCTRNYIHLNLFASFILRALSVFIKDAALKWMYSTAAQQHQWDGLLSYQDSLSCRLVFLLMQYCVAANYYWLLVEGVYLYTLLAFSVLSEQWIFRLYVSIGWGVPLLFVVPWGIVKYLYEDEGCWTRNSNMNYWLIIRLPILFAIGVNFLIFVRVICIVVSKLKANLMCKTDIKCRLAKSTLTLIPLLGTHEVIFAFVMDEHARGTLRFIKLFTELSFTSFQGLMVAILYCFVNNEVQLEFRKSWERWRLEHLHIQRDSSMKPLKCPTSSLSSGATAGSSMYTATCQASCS
Sequence of human glucagon receptor (human) (P47871 26-477): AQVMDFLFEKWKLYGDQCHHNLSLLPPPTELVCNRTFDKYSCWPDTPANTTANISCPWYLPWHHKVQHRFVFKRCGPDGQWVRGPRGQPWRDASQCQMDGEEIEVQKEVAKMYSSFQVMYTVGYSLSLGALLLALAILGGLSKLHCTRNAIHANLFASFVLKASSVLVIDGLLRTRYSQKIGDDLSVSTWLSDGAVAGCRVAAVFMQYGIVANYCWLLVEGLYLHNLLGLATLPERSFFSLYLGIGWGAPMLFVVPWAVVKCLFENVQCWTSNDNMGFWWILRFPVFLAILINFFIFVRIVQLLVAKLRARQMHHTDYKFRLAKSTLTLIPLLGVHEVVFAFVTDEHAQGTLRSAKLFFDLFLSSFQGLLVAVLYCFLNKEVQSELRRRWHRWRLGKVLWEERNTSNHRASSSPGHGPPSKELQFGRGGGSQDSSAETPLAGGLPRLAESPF

B1: Example 153 (peptide)
chain: YXQGTFTSDFSXXLDKKAQXAFIEYLLAGGPSSGEPPPSGS
modifications: Aib, Orn, αMeL; acylated Lys (AEEA-γGlu2-C18 diacid); C-terminal amide; synthetic construct; SITE 2: note = 2-Aminoisobutyric Acid; SITE 12: note = L-ornithine; SITE 13: note = alpha-methyl-leucine; SITE 17: note = Lysine is chemically modified through conjugation of the epsilon-amino group of the Lysine side chain with (2-[2-(2-Amino-ethoxy)-ethoxy]-acetyl)-(gamma-Glu)
As for B1, the Relative cAMP EC50, nM (0.1% casein) in assay [1] was 14.7 nM; with hGLP-1R it was 7.09 nM; in assay [2], 0.218 nM. For the same molecule, the cAMP Rel EC50, nM (1% HSA) in assay [1] came out at 1210 nM; with hGLP-1R, 488 nM; in assay [2], 16.8 nM.

B2: Example 159 (peptide)
chain: B1 chain with A28E, E35A, S39G, S41Q
modifications: non-natural residues; lipidated Lys; C-terminal amide; synthetic construct; SITE 2: note = 2-Aminoisobutyric Acid; SITE 12: note = L-ornithine; SITE 13: note = alpha-methyl-leucine; SITE 17: note = Lysine is chemically modified through conjugation of the epsilon-amino group of the Lysine side chain with (2-[2-(2-Amino-ethoxy)-ethoxy]-acetyl)-(gamma-Glu)
B2: the results for the Relative cAMP EC50, nM (0.1% casein) (in assay [1]; with hGLP-1R; in assay [2]) were 6.89 nM, 4.15 nM and 0.343 nM, respectively. Besides, the cAMP Rel EC50, nM (1% HSA) in assay [1] stood at 475 nM; with hGLP-1R, 588 nM; in assay [2], 49.7 nM.

B3: Example 178 (peptide)
chain: B1 chain with F10X, A28E, G29X, E35A
modifications: Aib, F(4CN), Orn, αMeL; lipidated Lys; C-terminal amide; synthetic construct; SITE 2: note = 2-Aminoisobutyric Acid; SITE 10: note = 4-cyano-L-phenylalanine; SITE 12: note = L-ornithine; SITE 13: note = alpha-methyl-leucine; SITE 17: note = Lysine is chemically modified through conjugation of the epsilon-amino group of the Lysine side chain with (2-[2-(2-
Regarding B3, the Relative cAMP EC50, nM (0.1% casein) in assay [1] was 7.29 nM; in the assay with hGLP-1R it was 4.01 nM; in assay [2] it was 0.34 nM.

B4: Example 195 (peptide)
chain: B1 chain with A28E, G29X, S39E
modifications: Lys acylated (AEEA)2-γGlu-C18 diacid; non-natural residues; C-terminal amide; synthetic construct; SITE 2: note = 2-Aminoisobutyric Acid; SITE 12: note = L-ornithine; SITE 13: note = alpha-methyl-leucine; SITE 17: note = Lysine is chemically modified through conjugation of the epsilon-amino group of the Lysine side chain with (2-[2-(2-Amino-ethoxy)-ethoxy]-acetyl)2-(gamma-Glu)
Turning to B4, the Relative cAMP EC50, nM (0.1% casein) is 3.1 nM in assay [1], 6.13 nM with hGLP-1R and 0.145 nM in assay [2]. The cAMP Rel EC50, nM (1% HSA) in assay [1] amounted to 605 nM; with hGLP-1R it was 829 nM; in assay [2], 28.8 nM.

B5: Example 210 (peptide)
chain: B1 chain with A28E, G29A, E35A, S41T
modifications: non-natural residues, lysine acylation, C-terminal amide; synthetic construct; SITE 2: note = 2-Aminoisobutyric Acid; SITE 12: note = L-ornithine; SITE 13: note = alpha-methyl-leucine; SITE 17: note = Lysine is chemically modified through conjugation of the epsilon-amino group of the Lysine side chain with (2-[2-(2-Amino-ethoxy)-ethoxy]-acetyl)-(gamma-Glu)
Regarding B5, the figures for the Relative cAMP EC50 (in assay [1]; in the assay with hGLP-1R; in assay [2]) were 2.81 nM, 1.44 nM and 0.153 nM, respectively.

B6: Example 161 (peptide)
chain: B1 chain with A28E, P31E, E35A, S39G
modifications: non-natural residues, lysine acylation, C-terminal amide; synthetic construct; SITE 2: note = 2-Aminoisobutyric Acid; SITE 12: note = L-ornithine; SITE 13: note = alpha-methyl-leucine; SITE 17: note = Lysine is chemically modified through conjugation of the epsilon-amino group of the Lysine side chain with (2-[2-(2-Amino-ethoxy)-ethoxy]-acetyl)-(gamma-Glu)
As for B6, the Relative cAMP EC50, nM (0.1% casein) in assay [1] is 4.83 nM; with hGLP-1R, 5.22 nM; in assay [2], 0.555 nM. Further, the cAMP Rel EC50, nM (1% HSA) amounted to 902 nM in assay [1], 963 nM with hGLP-1R and 87.3 nM in assay [2].

B7: Example 213 (peptide)
chain: B1 chain with A28E, G29A, E35A, S41T
modifications: non-natural residues, AEEA-γGlu-C18 diacid acylation; synthetic construct; SITE 2: note = 2-Aminoisobutyric Acid; SITE 12: note = L-ornithine; SITE 13: note = alpha-methyl-leucine; SITE 17: note = Lysine is chemically modified through conjugation of the epsilon-amino group of the Lysine side chain with (2-[2-(2-Amino-ethoxy)-ethoxy]-acetyl)-(gamma-Glu)
In the case of B7, the Relative cAMP EC50 in assay [1] came out at 3.61 nM; in the assay with hGLP-1R, 1.9 nM; in assay [2], 0.124 nM.

B8: Example 182 (peptide)
chain: B1 chain with A28E, G29X, P31H, E35A, S41T
modifications: Aib, Orn, alpha-methyl-Leu, lipidated Lys, C-terminal amide; synthetic construct; SITE 2: note = 2-Aminoisobutyric Acid; SITE 12: note = L-ornithine; SITE 13: note = alpha-methyl-leucine; SITE 17: note = Lysine is chemically modified through conjugation of the epsilon-amino group of the Lysine side chain with (2-[2-(2-Amino-ethoxy)-ethoxy]-acetyl)2-(gamma-Glu)
B8: the Relative cAMP EC50, nM (0.1% casein) turned out to be 5.33 nM in assay [1], 4.8 nM in the assay with hGLP-1R and 0.0781 nM in assay [2]. In addition, the cAMP Rel EC50, nM (1% HSA) in assay [1] was 1480 nM; in the assay with hGLP-1R it was 398 nM; in assay [2], 9.95 nM.

B9: Example 170 (peptide)
chain: B1 chain with Y25W, A28E, P31H, E35A
modifications: Lys acylated with AEEA-γGlu-C18 diacid; non-natural residues; C-amide; synthetic construct; SITE 2: note = 2-Aminoisobutyric Acid; SITE 12: note = L-ornithine; SITE 13: note = alpha-methyl-leucine; SITE 17: note = Lysine is chemically modified through conjugation of the epsilon-amino group of the Lysine side chain with (2-[2-(2-Amino-ethoxy)-ethoxy]-acetyl)-(gamma-Glu)
For B9, the Relative cAMP EC50, nM (0.1% casein) amounted to 5.29 nM in assay [1], 4.11 nM with hGLP-1R and 0.401 nM in assay [2]. The cAMP Rel EC50, nM (1% HSA) in assay [1] amounted to 1800 nM; with hGLP-1R it was 361 nM; in assay [2], 43.5 nM.

B10: Example 206 (peptide)
chain: B1 chain with A28E, G29A, E35A, S39E, S41E
modifications: Aib, Orn, αMeL, D-Ala; AEEA-γGlu-C18 diacid acyl; amide; synthetic construct; SITE 2: note = 2-Aminoisobutyric Acid; SITE 12: note = L-ornithine; SITE 13: note = alpha-methyl-leucine; SITE 17: note = Lysine is chemically modified through conjugation of the epsilon-amino group of the Lysine side chain with (2-[2-(2-Amino-ethoxy)-ethoxy]-acetyl)-(gamma-Glu)
For the molecule B10, the Relative cAMP EC50 in assay [1] was determined as 2.2 nM; in the assay with hGLP-1R, 2.77 nM; in assay [2], 0.224 nM. For the same molecule, the values for the cAMP Rel EC50, nM (1% HSA) (in assay [1]; in the assay with hGLP-1R; in assay [2]) were 545 nM, 372 nM and 38.8 nM, respectively.

B11: Example 180 (peptide)
chain: B1 chain with A28E, G29X, P31E, E35A, S41T
modifications: Aib, Orn, αMeL, acylated K, C-terminal amide; synthetic construct; SITE 2: note = 2-Aminoisobutyric Acid; SITE 12: note = L-ornithine; SITE 13: note = alpha-methyl-leucine; SITE 17: note = Lysine is chemically modified through conjugation of the epsilon-amino group of the Lysine side chain with (2-[2-(2-Amino-ethoxy)-ethoxy]-acetyl)2-(gamma-Glu)
As to B11, the Relative cAMP EC50, nM (0.1% casein) in assay [1] is 2.44 nM; with hGLP-1R, 5.08 nM; in assay [2], 0.14 nM. Moreover, the cAMP Rel EC50, nM (1% HSA) in assay [1] was 1320 nM; with hGLP-1R it was 891 nM; in assay [2] it was 24 nM.

B12: Example 218 (peptide)
chain: B1 chain with L27I, A28E, G29X, P31E, E35A
modifications: acylated Lys, C-terminal amide, non-natural residues; synthetic construct; SITE 2: note = 2-Aminoisobutyric Acid; SITE 12: note = L-ornithine; SITE 13: note = alpha-methyl-leucine; SITE 17: note = Lysine is chemically modified through conjugation of the epsilon-amino group of the Lysine side chain with (2-[2-(2-Amino-ethoxy)-ethoxy]-acetyl)-(gamma-Glu)
Take B12: the values for the Relative cAMP EC50 (in assay [1]; with hGLP-1R; in assay [2]) were 7.89 nM, 0.76 nM and 0.0853 nM, respectively.

The record behind these values is patent publication US20240270821A1, “GIP/GLP1/GCG TRI-RECEPTOR AGONISTS AND USES THEREOF” (priority 2023, published 2024).
